The target in assay [1] is intact ZIKV particles (ZIKV envelope protein) (Zika virus). In words: direct ELISA on coated intact ZIKV particles (10-fold dilutions), antibody 1 ug/ml, anti-mouse IgG-HRP; LOD = blank + 3 SD.
The target is the same in assay [2]. Kind of assay: direct ELISA on coated intact ZIKV particles (10-fold dilutions), antibody 1 ug/ml, anti-mouse IgG-HRP; FPLR fit. On the technique in general: In an ELISA, binding on a coated surface is turned into a signal by an enzyme label.
The target is the same in assay [3]. Kind of assay: direct ELISA on coated intact ZIKV particles (10-fold dilutions), biotinylated peptide 2 uM, streptavidin-HRP; LOD = blank + 3 SD.
The target is the same in assay [4]. In words: direct ELISA on coated intact ZIKV particles (10-fold dilutions), biotinylated peptide 2 uM, streptavidin-HRP; FPLR fit.
For assay [5] the target is unchanged. In words: direct ELISA on coated intact ZIKV particles (10-fold dilutions), biotinylated peptide 5 uM, streptavidin-HRP; FPLR fit.
The target is the same in assay [6]. Kind of assay: direct ELISA on coated intact ZIKV particles (10-fold dilutions), biotinylated peptide 5 uM, streptavidin-HRP; LOD = blank + 3 SD.
Assay [7] shares this target. Kind of assay: direct ELISA on coated intact ZIKV particles (10-fold dilutions), biotinylated peptide 20 uM, streptavidin-HRP; FPLR fit.
Assay [8] shares this target. Kind of assay: direct ELISA on coated intact ZIKV particles, mono-arm peptide 20 uM in urine (1:1) or serum (1:10); data not shown.
Assay [9] has the same target. In words: direct ELISA on coated intact ZIKV particles (10-fold dilutions), biotinylated peptide 20 uM, streptavidin-HRP; LOD = blank + 3 SD.
The target is the same in assay [10]. Kind of assay: direct ELISA on coated intact ZIKV particles (10-fold dilutions), biotinylated peptide 0.5 uM, streptavidin-HRP; FPLR fit.
The target in assay [11] is intact DENV-2 particles (Dengue virus serotype 2). Kind of assay: direct ELISA, plates coated with 10^5 copies/mL of intact virus particles.
The target of assay [12] is intact DENV-3 particles (Dengue virus serotype 3). The assay is described as above.
Assay [13] deals with intact ZIKV particles (ZIKV envelope protein) (Zika virus). Kind of assay: direct ELISA on coated intact ZIKV particles (10-fold dilutions), biotinylated peptide 0.5 uM, streptavidin-HRP; LOD = blank + 3 SD.
The target of assay [14] is intact DENV-1 particles (Dengue virus serotype 1). In words: direct ELISA, plates coated with 10^5 copies/mL of intact virus particles.

With antibody 4G2 hybridoma mouse IgG2a, the LOD (log[ZIKV], copies/mL) in [1] turned out to be 5.8. Moreover, in assay [2], the FPLR C50 (log[ZIKV], copies/mL) came out at 6.2 and the FPLR minimum is 0.04 ΔA.

Turning to WPWIGTGPGCCGPGKTDAYS (designed binder, maleimide-PEG2-biotin on the cysteines of the bridge (thioether)) [clamp peptide C4], the LOD (log[ZIKV], copies/mL) in assay [3] was found to be 5.7. In [4], the FPLR C50 (log[ZIKV], copies/mL) stood at 6.3 and the FPLR minimum was 0.02 ΔA.

Take AGRRPGPGCCGPGSWPGQ (designed binder, maleimide-PEG2-biotin on the cysteines of the bridge (thioether)) [clamp peptide C5]: in [5], the FPLR C50 (log[ZIKV], copies/mL) worked out at 6.4 and the FPLR minimum was 0.01 ΔA. In addition, the LOD (log[ZIKV], copies/mL) in assay [6] amounted to 5.8.

With WPHTQGPGCCGPGLRGHA (designed binder, maleimide-PEG2-biotin on the cysteines of the bridge (thioether)) [clamp peptide C2], the LOD (log[ZIKV], copies/mL) in assay [3] is 4.5. Further, in assay [4], the FPLR C50 (log[ZIKV], copies/mL) is 6.2 and the FPLR minimum is 0.05 ΔA.

With CLRGHA (maleimide-PEG2-biotin on the N-terminal cysteine) [mono-arm peptide P2], in assay [7], the FPLR C50 (log[ZIKV], copies/mL) turned out to be 6.2 and the FPLR minimum is 0.04 ΔA. Moreover, the lowest ZIKV concentration detected in urine or serum in assay [8] came out at 1e+06 copies/mL. Further, the LOD (log[ZIKV], copies/mL) in assay [9] came out at 4.5.

CSWPGQ (maleimide-PEG2-biotin on the N-terminal cysteine) [mono-arm peptide P1]: in assay [9], the LOD (log[ZIKV], copies/mL) is 6.8.

Regarding AGRRPGPGCCGPGLRGHA (designed binder, maleimide-PEG2-biotin on the cysteines of the bridge (thioether)) [clamp peptide C6], in [10], the FPLR C50 (log[ZIKV], copies/mL) is 5.2 and the FPLR minimum is 0.05 ΔA. Besides, the signal decrease against the ZIKV signal in assay [11] was determined as 45%. In addition, the signal decrease against the ZIKV signal in assay [12] stood at 55%. The LOD (log[ZIKV], copies/mL) in assay [13] worked out at 3.5.

For CKTDAYS (maleimide-PEG2-biotin on the N-terminal cysteine) [mono-arm peptide X2], in assay [7], the FPLR C50 (log[ZIKV], copies/mL) worked out at 6.1 and the FPLR minimum was 0.01 ΔA. Moreover, the LOD (log[ZIKV], copies/mL) in assay [9] is 5.8.

As to WPHTQGPGCCGPGSWPGQ (designed binder, maleimide-PEG2-biotin on the cysteines of the bridge (thioether)) [clamp peptide C1], the LOD (log[ZIKV], copies/mL) in assay [3] was determined as 4.8. In assay [4], the FPLR C50 (log[ZIKV], copies/mL) was determined as 6.3 and the FPLR minimum was 0.03 ΔA.

The molecule WPWIGTGPGCCGPGKRNATP (designed binder, maleimide-PEG2-biotin on the cysteines of the bridge (thioether)) [clamp peptide C3] yielded an FPLR C50 (log[ZIKV], copies/mL) in assay [10] of 5.3. In [10], the FPLR minimum was 0.05 ΔA. Moreover, the signal decrease against the ZIKV signal in assay [11], in assay [12] and in [14] was 70% in each case. Also, in assay [13], the LOD (log[ZIKV], copies/mL) amounted to 3.5.

For the molecule MDSPIKGPGCCGPGKRNATP (designed binder, maleimide-PEG2-biotin on the cysteines of the bridge (thioether)) [clamp peptide C7], the signal decrease against the ZIKV signal in [11], in assay [12] and in [14] was 70% each time. Also, the FPLR C50 (log[ZIKV], copies/mL) in assay [5] was 5.8. Besides, the FPLR minimum in assay [5] was 0.01 ΔA. For the same molecule, the LOD (log[ZIKV], copies/mL) in assay [6] turned out to be 3.7.

Regarding MDSPIKGPGCCGPGKTDAYS (designed binder, maleimide-PEG2-biotin on the cysteines of the bridge (thioether)) [clamp peptide C8], in assay [5], the FPLR C50 (log[ZIKV], copies/mL) amounted to 6.2 and the FPLR minimum was 0.03 ΔA. In assay [6], the LOD (log[ZIKV], copies/mL) is 4.7.

For the molecule CKRNATP (maleimide-PEG2-biotin on the N-terminal cysteine) [mono-arm peptide X1], in assay [7], the FPLR C50 (log[ZIKV], copies/mL) was found to be 6.1 and the FPLR minimum is 0.03 ΔA. This molecule returned a lowest ZIKV concentration detected in urine or serum in [8] of 1e+07 copies/mL. Also, the LOD (log[ZIKV], copies/mL) in assay [9] came out at 4.8.

These data come from US20190385705A1.
